# Tests used:
# [1] = system: CC(=O)SCCNC(=O)CCNC(=O)[C@H](O)C(C)(C)COP(=O)(O)OP(=O)(O)OC[C@H]1O[C@@H](n2cnc3c(N)ncnc32)[C@H](O)[C@@H]1OP(=O)(O)O; assay: purified protein; conditions: NADPH substrates likely compete in the malonyl-acetyl transferase (MAT) binding pocket
# [2] = target: KS-MAT^S581A didomain of murine FAS (functional MAT knockout) (murine)
Substance,Km [1],"Inhibition constant K i (substrate inhibition on titration of decanoyl-ACP at constant metmal-ACP; KS elongation activity by the enzyme-coupled MabA assay, apparent constant) [2]"
"metazoan fatty acid synthase (mFAS), murine FAS (Mus musculus)",69 ± 12 µM,
decanoyl-acyl carrier protein (ACP) (domain or fragment),,270 µM
